Assay results: patent US20250339569A1 (3B PHARMACEUTICALS, published 2025)
Starred links: 1 amine or outer side, 2 acyl side, 3 side chain; linkers in the order of their positions; H or OH if unused. Positions of bridges follow the written chain, without caps; N, C: chain ends. Non-standard residues stand in square brackets, D forms with d. Groups on a side chain read outwards from the residue. Primed or numbered codes have the meaning given here. *: point of attachment. APAc″ = 2-(4-(amino)piperidin-1-yl)acetic acid, NC1CCN(CC(=O)*)CC1; DOTA = O=C(O)CN1CCN(CC(=O)O)CCN(CC(=O)*)CCN(CC(=O)O)CC1; mXylylene = c1cc(C[*:1])cc(C[*:2])c1; tBuAla = CC(C)(C)C[C@H](N)C(=O)O; Aic = NC1(C(=O)O)Cc2ccccc2C1; Pen = CC(C)(S)[C@H](N)C(=O)O; Propanoyl(3-OH) = O=C(CCO)*; 4Amb = NCc1ccc(C(=O)O)cc1; Isovaleryl = CC(C)CC(=O)*; Ac6c = NC1(C(=O)O)CCCCC1; 4Amc = not defined here; APAc = not defined here; Ac5c = NC1(C(=O)O)CCCC1; Thp = NC1(C(=O)O)CCOCC1; Apr = not defined here; AEEA = NCCOCCOCC(=O)O; Nlys = NCCCCNCC(=O)O; Sar = CNCC(=O)O

Target: human carbonic anhydrase 9 (CAIX) (human, UniProt Q16790 38-459)
Test: FACS competition on HT-29 cells against tracer 3BP-2776; pIC50 category A = pIC50 >8.0
Description: CAIX-expressing human HT-29 colorectal cancer cells (DSMZ, RRID: CVCL_0320) were cultured in McCoys's 5A modified medium (Biochrom, #F1015) including 10% fetal calf serum (FCS), 2 mM L-glutamine, 100 U/ml penicillin and 100 μg/mL streptomycin. Cells were detached with Accutase (Biolegend, #423201) and washed in FACS buffer (PBS including 1% FCS). Cells were diluted in FACS buffer to a final concentration of 500.000 cells per ml. 200 μL of the cell suspension were transferred to a u-shaped non-binding 96-well plate (Greiner) and cells were washed in ice-cold FACS buffer.
When biotinylated compounds were used an additional incubation step with 1 μg/mL APC-Streptavidin (Miltenyi; #130-106-791) in 50 μL FACS buffer for 30 minutes on ice was performed.
Cells were washed twice with ice-cold FACS buffer and analyzed in an Attune NxT flow cytometer (Thermo Fisher). Median fluorescence intensities (MFI) of the APC/Cy5-channel were calculated by Attune NxT software.

pIC50 | Binder
> 8 pic50 | {DOTA-APAc}-VYCE[dP]DW[Ac5c]TWSC-NH2 (linker 3-12 via mXylylene; reading uncertain, also called DOTA-APAc-Val-Tyr-[Cys(3MeBn)-Glu-pro-Asp-Trp-Eca-Thr-Trp-Ser-Cys]-NH2) [3BP-3587]
> 8 pic50 | Ac-YCE[dP]DWLTWSC-NH2 (linker 2-11 via 3MeBn, also called Ac-Tyr-[Cys(3MeBn)-Glu-pro-Asp-Trp-Leu-Thr-Trp-Ser-Cys]-NH2) [3BP-3729]
> 8 pic50 | Ac-VYCE[dP]DWLTWA[Pen]-NH2 (linker 3-12 via mXylylene; SMILES CC(=O)N[C@H](C(=O)N[C@@H](Cc1ccc(O)cc1)C(=O)N[C@H]1CSCc2cccc(c2)CSC(C)(C)[C@@H](C(N)=O)NC(=O)[C@H](C)NC(=O)[C@H](Cc2c[nH]c3ccccc23)NC(=O)[C@H]([C@@H](C)O)NC(=O)[C@H](CC(C)C)NC(=O)[C@H](Cc2c[nH]c3ccccc23)NC(=O)[C@H](CC(=O)O)NC(=O)[C@H]2CCCN2C(=O)[C@H](CCC(=O)O)NC1=O)C(C)C, also called Ac-Val-Tyr-[Cys(3MeBn)-Glu-pro-Asp-Trp-Leu-Thr-Trp-Ala-Pen]-NH2) [3BP-3492]
> 8 pic50 | Ac-VYCE[Nlys](DOTA)DWLTWAC-NH2 (linker 3-12 via mXylylene, also called Ac-Val-Tyr-[Cys(3MeBn)-Glu-Nlys(DOTA)-Asp-Trp-Leu-Thr-Trp-Ala-Cys]-NH2) [3BP-3562]
> 8 pic50 | Ac-VYCE[dP]DW[tBuAla]TWA[Pen]-NH2 (linker 3-12 via mXylylene; SMILES CC(=O)N[C@H](C(=O)N[C@@H](Cc1ccc(O)cc1)C(=O)N[C@H]1CSCc2cccc(c2)CSC(C)(C)[C@@H](C(N)=O)NC(=O)[C@H](C)NC(=O)[C@H](Cc2c[nH]c3ccccc23)NC(=O)[C@H]([C@@H](C)O)NC(=O)[C@H](CC(C)(C)C)NC(=O)[C@H](Cc2c[nH]c3ccccc23)NC(=O)[C@H](CC(=O)O)NC(=O)[C@H]2CCCN2C(=O)[C@H](CCC(=O)O)NC1=O)C(C)C, also called Ac-Val-Tyr-[Cys(3MeBn)-Glu-pro-Asp-Trp-Npg-Thr-Trp-Ala-Pen]-NH2) [3BP-3493]
> 8 pic50 | Ac-VYCE[Sar]DW[tBuAla]TWA[Pen]-NH2 (linker 3-12 via mXylylene; SMILES CC(=O)N[C@H](C(=O)N[C@@H](Cc1ccc(O)cc1)C(=O)N[C@H]1CSCc2cccc(c2)CSC(C)(C)[C@@H](C(N)=O)NC(=O)[C@H](C)NC(=O)[C@H](Cc2c[nH]c3ccccc23)NC(=O)[C@H]([C@@H](C)O)NC(=O)[C@H](CC(C)(C)C)NC(=O)[C@H](Cc2c[nH]c3ccccc23)NC(=O)[C@H](CC(=O)O)NC(=O)CN(C)C(=O)[C@H](CCC(=O)O)NC1=O)C(C)C, also called Ac-Val-Tyr-[Cys(3MeBn)-Glu-Nmg-Asp-Trp-Npg-Thr-Trp-Ala-Pen]-NH2) [3BP-3501]
> 8 pic50 | {DOTA-APAc}-VYCE[dP]DW[Aic]TWSC-NH2 (linker 3-12 via mXylylene; reading uncertain, also called DOTA-APAc-Val-Tyr-[Cys(3MeBn)-Glu-pro-Asp-Trp-Aic-Thr-Trp-Ser-Cys]-NH2) [3BP-3586]
> 8 pic50 | {DOTA-APAc}-VYCE[dP]DW[Thp]TWSC-NH2 (linker 3-12 via mXylylene; reading uncertain, also called DOTA-APAc-Val-Tyr-[Cys(3MeBn)-Glu-pro-Asp-Trp-Thp-Thr-Trp-Ser-Cys]-NH2) [3BP-3585]
> 8 pic50 | Isovaleryl-YCE[dP]DWLTWSC-NH2 (linker 2-11 via mXylylene; SMILES CC(C)CC(=O)N[C@@H](Cc1ccc(O)cc1)C(=O)N[C@H]1CSCc2cccc(c2)CSC[C@@H](C(N)=O)NC(=O)[C@H](CO)NC(=O)[C@H](Cc2c[nH]c3ccccc23)NC(=O)[C@H]([C@@H](C)O)NC(=O)[C@H](CC(C)C)NC(=O)[C@H](Cc2c[nH]c3ccccc23)NC(=O)[C@H](CC(=O)O)NC(=O)[C@H]2CCCN2C(=O)[C@H](CCC(=O)O)NC1=O, also called Iva-Tyr-[Cys(3MeBn)-Glu-pro-Asp-Trp-Leu-Thr-Trp-Ser-Cys]-NH2) [3BP-3569]
> 8 pic50 | Ac-YCE[dP]DWLTWE([Apr-DOTA])C-NH2 (linker 2-11 via 3MeBn; reading uncertain, also called Ac-Tyr-[Cys(3MeBn)-Glu-pro-Asp-Trp-Leu-Thr-Trp-Glu(NH-Apr-DOTA′)-Cys]-NH2) [3BP-3841]
> 8 pic50 | Isovaleryl-YCE[dP]DWLTWE([Apr-AEEA-DOTA])C-NH2 (linker 2-11 via 3MeBn; reading uncertain, also called Iva-Tyr-[Cys(3MeBn)-Glu-pro-Asp-Trp-Leu-Thr-Trp-Glu(NH-Apr-O2Oc-DOTA′)-Cys]-NH2) [3BP-3740]
> 8 pic50 | Isovaleryl-DCE[dP]DWLTWSC-NH2 (linker 2-11 via 3MeBn, also called Iva-Asp-[Cys(3MeBn)-Glu-pro-Asp-Trp-Leu-Thr-Trp-Ser-Cys]-NH2) [3BP-3727]
> 8 pic50 | Isovaleryl-ECE[dP]DWLTWSC-NH2 (linker 2-11 via 3MeBn, also called Iva-Glu-[Cys(3MeBn)-Glu-pro-Asp-Trp-Leu-Thr-Trp-Ser-Cys]-NH2) [3BP-3728]
> 8 pic50 | Isovaleryl-SCE[dP]DWLTWE([Apr-AEEA-DOTA])C-NH2 (linker 2-11 via 3MeBn; reading uncertain, also called Iva-Ser-[Cys(3MeBn)-Glu-pro-Asp-Trp-Leu-Thr-Trp-Glu(NH-Apr-O2Oc-DOTA′)-Cys]-NH2) [3BP-3743]
> 8 pic50 | {Propanoyl(3-OH)}-YCE[dP]DWLTWE([Apr-DOTA])C-NH2 (linker 2-11 via mXylylene; reading uncertain, also called 3OHPr-Tyr-[Cys(3MeBn)-Glu-pro-Asp-Trp-Leu-Thr-Trp-Glu(NH-Apr-DOTA′)-Cys]-NH2) [3BP-3842]
> 8 pic50 | Isovaleryl-FCE[dP]DWLTWE([Apr-AEEA-DOTA])C-NH2 (linker 2-11 via 3MeBn; reading uncertain, also called Iva-Phe-[Cys(3MeBn)-Glu-pro-Asp-Trp-Leu-Thr-Trp-Glu(NH-Apr-O2Oc-DOTA′)-Cys]-NH2) [3BP-3742]
> 8 pic50 | {Propanoyl(3-OH)}-YCE[dP]DWLTWSC-NH2 (linker 2-11 via 3MeBn, also called 3OHPr-Tyr-[Cys(3MeBn)-Glu-pro-Asp-Trp-Leu-Thr-Trp-Ser-Cys]-NH2) [3BP-3730]
> 8 pic50 | {DOTA-APAc}-VYCE[dP]DW[Ac6c]TWSC-NH2 (linker 3-12 via mXylylene; reading uncertain, also called DOTA-APAc-Val-Tyr-[Cys(3MeBn)-Glu-pro-Asp-Trp-Egz-Thr-Trp-Ser-Cys]-NH2) [3BP-3584]
> 8 pic50 | Ac-VYCE[dP]DW[tBuAla]TWSC-NH2 (linker 3-12 via mXylylene; SMILES CC(=O)N[C@H](C(=O)N[C@@H](Cc1ccc(O)cc1)C(=O)N[C@H]1CSCc2cccc(c2)CSC[C@@H](C(N)=O)NC(=O)[C@H](CO)NC(=O)[C@H](Cc2c[nH]c3ccccc23)NC(=O)[C@H]([C@@H](C)O)NC(=O)[C@H](CC(C)(C)C)NC(=O)[C@H](Cc2c[nH]c3ccccc23)NC(=O)[C@H](CC(=O)O)NC(=O)[C@H]2CCCN2C(=O)[C@H](CCC(=O)O)NC1=O)C(C)C, also called Ac-Val-Tyr-[Cys(3MeBn)-Glu-pro-Asp-Trp-Npg-Thr-Trp-Ser-Cys]-NH2) [3BP-3491]
> 8 pic50 | {DOTA-4Amc}-VYCE[dP]DW[tBuAla]TWAC-NH2 (linker 3-12 via mXylylene; reading uncertain, also called DOTA-4Amc-Val-Tyr-[Cys(3MeBn)-Glu-pro-Asp-Trp-Npg-Thr-Trp-Ala-Cys]-NH2) [3BP-3431]
> 8 pic50 | Ac-VYCE[dP]DW[tBuAla]TWAC-NH2 (linker 3-12 via mXylylene; SMILES CC(=O)N[C@H](C(=O)N[C@@H](Cc1ccc(O)cc1)C(=O)N[C@H]1CSCc2cccc(c2)CSC[C@@H](C(N)=O)NC(=O)[C@H](C)NC(=O)[C@H](Cc2c[nH]c3ccccc23)NC(=O)[C@H]([C@@H](C)O)NC(=O)[C@H](CC(C)(C)C)NC(=O)[C@H](Cc2c[nH]c3ccccc23)NC(=O)[C@H](CC(=O)O)NC(=O)[C@H]2CCCN2C(=O)[C@H](CCC(=O)O)NC1=O)C(C)C, also called Ac-Val-Tyr-[Cys(3MeBn)-Glu-pro-Asp-Trp-Npg-Thr-Trp-Ala-Cys]-NH2) [3BP-3490]
> 8 pic50 | Ac-VYCE[dP]DW[Ac6c]TWAC-NH2 (linker 3-12 via mXylylene; SMILES CC(=O)N[C@H](C(=O)N[C@@H](Cc1ccc(O)cc1)C(=O)N[C@H]1CSCc2cccc(c2)CSC[C@@H](C(N)=O)NC(=O)[C@H](C)NC(=O)[C@H](Cc2c[nH]c3ccccc23)NC(=O)[C@H]([C@@H](C)O)NC(=O)C2(CCCCC2)NC(=O)[C@H](Cc2c[nH]c3ccccc23)NC(=O)[C@H](CC(=O)O)NC(=O)[C@H]2CCCN2C(=O)[C@H](CCC(=O)O)NC1=O)C(C)C, also called Ac-Val-Tyr-[Cys(3MeBn)-Glu-pro-Asp-Trp-Egz-Thr-Trp-Ala-Cys]-NH2) [3BP-3503]
> 8 pic50 | Ac-VYCE[dP]DWLTWAC[4Amb]K(DOTA)-NH2 (linker 3-12 via mXylylene; SMILES CC(=O)N[C@H](C(=O)N[C@@H](Cc1ccc(O)cc1)C(=O)N[C@H]1CSCc2cccc(c2)CSC[C@@H](C(=O)NCc2ccc(C(=O)N[C@@H](CCCCNC(=O)CN3CCN(CC(=O)O)CCN(CC(=O)O)CCN(CC(=O)O)CC3)C(N)=O)cc2)NC(=O)[C@H](C)NC(=O)[C@H](Cc2c[nH]c3ccccc23)NC(=O)[C@H]([C@@H](C)O)NC(=O)[C@H](CC(C)C)NC(=O)[C@H](Cc2c[nH]c3ccccc23)NC(=O)[C@H](CC(=O)O)NC(=O)[C@H]2CCCN2C(=O)[C@H](CCC(=O)O)NC1=O)C(C)C, also called Ac-Val-Tyr-[Cys(3MeBn)-Glu-pro-Asp-Trp-Leu-Thr-Trp-Ala-Cys]-Pamb-Lys(DOTA)-NH2) [3BP-3477]
> 8 pic50 | Ac-VYCE[dP]DWLTWAC[AEEA]K(DOTA)-NH2 (linker 3-12 via mXylylene; SMILES CC(=O)N[C@H](C(=O)N[C@@H](Cc1ccc(O)cc1)C(=O)N[C@H]1CSCc2cccc(c2)CSC[C@@H](C(=O)NCCOCCOCC(=O)N[C@@H](CCCCNC(=O)CN2CCN(CC(=O)O)CCN(CC(=O)O)CCN(CC(=O)O)CC2)C(N)=O)NC(=O)[C@H](C)NC(=O)[C@H](Cc2c[nH]c3ccccc23)NC(=O)[C@H]([C@@H](C)O)NC(=O)[C@H](CC(C)C)NC(=O)[C@H](Cc2c[nH]c3ccccc23)NC(=O)[C@H](CC(=O)O)NC(=O)[C@H]2CCCN2C(=O)[C@H](CCC(=O)O)NC1=O)C(C)C, also called Ac-Val-Tyr-[Cys(3MeBn)-Glu-pro-Asp-Trp-Leu-Thr-Trp-Ala-Cys]-O2Oc-Lys(DOTA)-NH2) [3BP-3474]
> 8 pic50 | {DOTA-APAc″}-CE[dP]DWLTWSC-NH2 (linker 1-10 via mXylylene, also called DOTA-APAc-[Cys(3MeBn)-Glu-pro-Asp-Trp-Leu-Thr-Trp-Ser-Cys]-NH2) [3BP-3858]
